Patent US20250186503A1, “METHODS AND COMBINATIONS FOR TREATMENT AND T CELL MODULATION” (Juno Therapeutics, Inc., priority 2018, published 2025)

Test system: anti-BCMA CARs
Assay: Binding of BCMA-Fc fusion protein to CAR-expressing T cells (flow cytometry)
Protocol: The clone encoding the human BCMA-Fc fusion construct with the N-terminal CD33 leader sequence (SEQ ID NO: 21) was inserted into an expression vector and expressed in HEK 293 cells. The resulting BCMA-Fc fusion protein was determined to have a purity of greater than 95% as assessed by gel permeation chromatography.

B1: BCMA-Fc fusion protein: extracellular domain of human BCMA and a human IgG1 Fc connected with a linker (SEQ ID NO: 22) (protein)
chain: MPLLLLLPLLWAGALAMLQMAGQCSQNEYFDSLLHACIPCQLRCSSNTPPLTCQRYCNASVTNSVKGTNAGGGGSPKSSDKTHTCPPCPAPEAEGAPSVFLFPPKPKDTLMISRTPEVTCVVVDVSHEDPEVKFNWYVDGVEVHNAKTKPREEQYNSTYRVVSVLTVLHQDWLNGKEYKCKVSNKALPSSIEKTISKAKGQPREPQVYTLPPSRDELTKNQVSLTCLVKGFYPSDIAVEWESNGQPENNYKTTPPVLDSDGSFFLYSKLTVDKSRWQQGNVFSCSVMHEALHNHYTQKSLSLSPGK
modifications: BCMA-Fc construct
binding to anti-BCMA CAR expressing T cells: specifically bound
